Results from article PMC11187536.

What was measured:
[1] = molecular target: soluble variant surface glycoprotein (sVSG) MITat1.2 (Trypanosoma brucei (endogenous in cell line 13-90)); assay: SEC; Superdex 200 Increase 10/300 GL, 50 mM HEPES pH 7.4, 150 mM NaCl, 100 µl sample at 5 mg/ml, 1 ml/min; self-association, dimer
[2] = molecular target: soluble variant surface glycoprotein (sVSG) MITat1.2 (Trypanosoma brucei (endogenous in cell line 13-90)); assay: SEC; Superdex 200 Increase 10/300 GL, 20 mM sodium acetate pH 5.2, 150 mM NaCl, 100 µl sample at 5 mg/ml, 1 ml/min; self-association, dimer

## soluble variant surface glycoprotein (sVSG) MITat1.2 (natural protein)
[1]
  stoichiometry N: 2
[2]
  stoichiometry N: 2
